# Laboratory results: IntAct's records for PubMed 18835279
# B1: Tax1-binding protein 3 (Mus musculus), Q9DBG9 (parent)
# chain: MSYTPGQPVTAVVQRVEIHKLRQGENLILGFSIGGGIDQDPSQNPFSEDKTDKGIYVTRVSEGGPAEIAGLQIGDKIMQVNGWDMTMVTHDQARKRLTKRSEEVVRLLVTRQSLQKAVQQSMLS
# Variants of: B1
# Details: with ctnb1_human CTNNB1, P35222
# Sequence of ctnb1_human CTNNB1, P35222 (P35222 whole entry): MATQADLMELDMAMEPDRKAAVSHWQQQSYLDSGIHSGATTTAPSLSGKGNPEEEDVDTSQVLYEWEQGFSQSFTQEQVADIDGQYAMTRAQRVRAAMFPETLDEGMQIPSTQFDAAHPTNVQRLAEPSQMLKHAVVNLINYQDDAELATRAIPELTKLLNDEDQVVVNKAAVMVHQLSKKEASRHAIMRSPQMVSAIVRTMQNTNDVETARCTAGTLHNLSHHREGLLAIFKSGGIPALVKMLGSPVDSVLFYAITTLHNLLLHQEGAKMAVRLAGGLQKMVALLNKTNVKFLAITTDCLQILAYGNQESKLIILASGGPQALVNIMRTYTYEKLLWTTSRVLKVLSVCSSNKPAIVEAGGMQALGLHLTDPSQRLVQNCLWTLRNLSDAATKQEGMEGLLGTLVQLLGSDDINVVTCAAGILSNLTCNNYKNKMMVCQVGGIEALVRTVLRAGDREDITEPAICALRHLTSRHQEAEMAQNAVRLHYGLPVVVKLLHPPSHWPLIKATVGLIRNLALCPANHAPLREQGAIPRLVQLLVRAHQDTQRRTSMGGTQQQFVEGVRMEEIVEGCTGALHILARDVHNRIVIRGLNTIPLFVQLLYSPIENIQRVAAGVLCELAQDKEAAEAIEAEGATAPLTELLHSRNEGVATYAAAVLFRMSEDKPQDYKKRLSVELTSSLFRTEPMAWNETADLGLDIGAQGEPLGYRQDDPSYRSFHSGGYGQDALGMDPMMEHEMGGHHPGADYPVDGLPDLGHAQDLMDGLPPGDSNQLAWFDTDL
row,Variant,effect of a mutation on the interaction
1,P45A,decreasing interaction
2,P45S,decreasing interaction

# Variants of: B1
# Details: with ctnb1_human CTNNB1, P35222
# Remark: another data set of the same source
row,Variant,effect of a mutation on the interaction
1,P45A,increasing interaction
